Test results from patent US6025158A, “Nucleic acids encoding humanized anti-IL-8 monoclonal antibodies” (Genentech, Inc., dated 2000).
Read-outs that look alike come from different tables or passages of the source.

Assays:
[1] = target: T1, recombinant human IL-8, (ser-IL-8)72 (human, UniProt P10145); experiment: 125I-IL-8 neutrophil competition; against F(ab)-1
[2] = target: T1, recombinant human IL-8, (ser-IL-8)72; experiment: inhibition of 125I-IL-8 binding to human neutrophils
[3] = target: IL-8 binding to IL-8 receptors on human neutrophils (Homo sapiens, UniProt P10145); experiment: inhibition of 125I-IL-8 binding to human neutrophils (competition binding assay); conditions: for IC50: humanized 6G425 variants, Table 4, read-out: IC50 Mean (concentration of variant necessary to inhibit binding of iodinated IL8 to human neutrophils)
IL-8 = IL-8 (Homo sapiens, UniProt P10145); experiment: human (wild type) IL-8 mediated neutrophil chemotaxis; format: cell-based
Procedure: Human neutrophils were isolated, counted and resuspended at 5×10^6 cells/ml in Hank's balanced salt solution (abbreviated HBSS; without calcium and magnesium) with 0.1% bovine serum albumin. The neutrophils were labeled by adding calcein AM (Molecular Probe, Eugene, Oreg.) at a final concentration of 2.0 μM. Following a 30 minute incubation at 37° C., cells were washed twice with HBSS-BSA and resuspended at 5×10^6 cells/ml.
Chemotaxis experiments were carried out in a Neuro Probe (Cabin John, Md.) 96-well chamber, model MBB96. […] 100 μl of the calcein AM-labeled neutrophils were added to the upper chambers and allowed to migrate through a 5 micrometer porosity PVP free polycarbonate framed filter (Neuro Probe Inc.) toward the bottom chamber sample. The chemotaxis apparatus was then incubated for 40 to 60 minutes at 37° C. with 5% CO2. At the end of the incubation, neutrophils remaining in the upper chamber were aspirated and upper chambers were washed three times with PBS. Then the polycarbonate filter was removed, non-migrating cells were wiped off with a squeegee wetted with PBS, and the filter was air dried for 15 minutes.
The relative number of neutrophils migrating through the filter (Neutrophil migration index) was determined by measuring fluorescence intensity of the filter and the fluorescence intensity of the contents of the lower chamber and adding the two values together. Fluorescence intensity was measured with a CytoFluor 2300 fluorescent plate reader (Millipore Corp. Bedford, Mass.) configured to read a Corning 96-well plate using the 485-20 nm excitation filter and a 530-25 emission filter, with the sensitivity set at 3.
The affinity matured Fab variant, 6G4V11N35E, was tested for its ability to inhibit IL-8 mediated neutrophil chemotaxis as described in Section (B)(2) above. The reuseable 96-well chemotaxis chamber described in Section (B)(2) was replaced with endotoxin-free disposable chemotaxis chambers containing 5-micron PVP-free polycarbonate filters (ChemoTx101-5, Neuro Probe, Inc. Cabin John, Md.).

[4] = target: T1, recombinant human IL-8, (ser-IL-8)72
[5] = target: human monomeric IL-8 (human)
rhesus IL-8 = rhesus IL-8 (rhesus, UniProt P67813); experiment: cell-based or functional assay
[6] = target: T1, recombinant human IL-8, (ser-IL-8)72; experiment: competition phage ELISA (K64C IL-8 coated, free IL-8)
Excerpt: The first step of the assay requires that the concentrations of the phage carrying the wild type and mutated antibodies be normalized, allowing a comparison of the relative affinities of each antibody.

B1: humanized 6G425 F(ab)-2 (Fab, V domains shown)
VH: EVQLVESGGGLVQPGGSLRLSCAASGYSFSSHYMHWVRQAPGKGLEWVGYIDPSNGETTYNQKFKGRATISRDNSKNTLYLQMNSLRAEDTAVYYCAARGDYRYNGDWFFDVWGQGT
VL: DIQMTQSPSSLSASVGDRVTITCRSSQSLVHGIGNTYLHWYQQKPGKAPKLLIYYKVSNRFSGVPSRFSGSGSGTDFTLTISSLQPEDFATYYCSQSTHVPLTFGQGTKVEIKR
For B1, the “fold decrease in IL-8 binding” value [1] was < 2 fold and the IC50 [2] was 106 nM.

B2: F(ab)-7: humanized variant, F(ab)-6 with LeuH80Val (antibody, V domains shown)
VL: DIQMTQSPSSLSASVGDRVTITCRSSQSLVHGIGNTYLHWYQQKPGKAPKLLIYYKVSNRFSGVPSRFSGSGSGTDFTLTISSLQPEDFATYYCSQSTHVPLTFGQGTKVEIKR
VH: EVQLVESGGGLVQPGGSLRLSCAASGYSFSSHYMHWVRQAPGKGLEWVGYIDPSNGETTYNQKFKGRFTLSRDNSKNTAYVQMNSLRAEDTAVYYCAARGDYRYNGDWFFDVWGQGT
B2 was tested, and the IC50 [3] was 38.4 nM.

B3: F(ab)-6: humanized variant, F(ab)-1 with IleH69Leu and LeuH78Ala (antibody, V domains shown)
VL: DIQMTQSPSSLSASVGDRVTITCRSSQSLVHGIGNTYLHWYQQKPGKAPKLLIYYKVSNRFSGVPSRFSGSGSGTDFTLTISSLQPEDFATYYCSQSTHVPLTFGQGTKVEIKR
VH: EVQLVESGGGLVQPGGSLRLSCAASGYSFSSHYMHWVRQAPGKGLEWVGYIDPSNGETTYNQKFKGRFTLSRDNSKNTAYLQMNSLRAEDTAVYYCAARGDYRYNGDWFFDVWGQGT
For B3, the “increase in affinity for IL-8” value ([3]; compared to F(ab)-1) was “approximately 2 fold” and the IC50 [3] was 34.6 nM.

B4: humanized 6G425 F(ab)-3 (Fab, V domains shown)
VH: EVQLVESGGGLVQPGGSLRLSCAASGYSFSSHYMHWVRQAPGKGLEWVGYIDPSNGETTYNQKFKGRFTISVDNSKNTLYLQMNSLRAEDTAVYYCAARGDYRYNGDWFFDVWGQGT
VL: DIQMTQSPSSLSASVGDRVTITCRSSQSLVHGIGNTYLHWYQQKPGKAPKLLIYYKVSNRFSGVPSRFSGSGSGTDFTLTISSLQPEDFATYYCSQSTHVPLTFGQGTKVEIKR
With B4 the “fold decrease in IL-8 binding” value [1] was < 2 fold and the IC50 [2] was 79.8 nM.

B5: 6G4.2.5 Fab: recombinant human-murine chimeric Fab of 6G4.2.5 (protein)
light: DIVMTQTPLSLPVSLGDQASISCRSSQSLVHGIGNTYLHWYLQKPGQSPKLLIYKVSNRFSGVPDRFSGSGSGTDFTLRISRVEAEDLGLYFCSQSTHVPLTFGAGTKLELKRAVAAPTVFIFPPSSEQLKSGTASVVCLLNNFYPREAKVQWKVDNALQSGNSQESVTEQDSKDSTYSLSSTLTLSKADYEKHKVYACEVTHQGLSSPVTKSFNRGEC
heavy: EIQLQQSGPELMKPGASVKISCKASGYSFSSHYMHWVKQSHGKSLEWIGYIDPSNGETTYNQKFKGKATLTVDTSSSTANVHLSSLTSDDSAVYFCARGDYRYNGDWFFDVWGAGTTVTVSSASTKGPSVFPLAPSSKSTSGGTAALGCLVKDYFPEPVTVSWNSGALTSGVHTFPAVLQSSGLYSLSSVVTVPSSSLGTQTYICNVNHKPSNTKVDKKVEPKSCDKTHT
In the case of B5, the “inhibition of human IL-8 mediated neutrophil chemotaxis / migration” value (IL-8) is reported as “demonstrates the inhibition of human IL-8 mediated neutrophil chemotaxis”.

B6: humanized 6G425 F(ab)-9 (Fab, V domains shown)
VH: EVQLVQSGGGLVQPGGSLRLSCAASGYSFSSHYMHWVRQAPGKGLEWVGYIDPSNGETTYNQKFKGRFTLSRDNSKNTAYLQMNSLRAEDTAVYYCARGDYRYNGDWFFDVWGQGTLVTVSS
VL: DIQMTQSPSSLSASVGDRVTITCRSSQSLVHGIGNTYLHWYQQKPGKAPKLLIYKVSNRFSGVPSRFSGSGSGTDFTLTISSLQPEDFATYYCSQSTHVPLTFGQGTKVEIKR
For B6, the IC50, IL-8 mediated neutrophil chemotaxis [4] was 12 nM, the IC50, IL-8 mediated neutrophil chemotaxis [5] was 15 nM and the “IC50, IL-8 mediated neutrophil chemotaxis” value (rhesus IL-8) was ~22 nM.

B7: h6G4V11 alanine mutant H98A (CDR-L3) (Fab, V domains shown)
VH: EVQLVQSGGGLVQPGGSLRLSCAASGYSFSSHYMHWVRQAPGKGLEWVGYIDPSNGETTYNQKFKGRFTLSRDNSKNTAYLQMNSLRAEDTAVYYCARGDYRYNGDWFFDVWGQGTLVTVSS
VL: DIQMTQSPSSLSASVGDRVTITCRSSQSLVHGIGNTYLHWYQQKPGKAPKLLIYKVSNRFSGVPSRFSGSGSGTDFTLTISSLQPEDFATYYCSQSTAVPLTFGQGTKVEIKR
B7 was tested, and the IC50 [6] was 8 nM.

B8: h6G4V11 alanine mutant Y37A (CDR-L1) (Fab, V domains shown)
VH: EVQLVQSGGGLVQPGGSLRLSCAASGYSFSSHYMHWVRQAPGKGLEWVGYIDPSNGETTYNQKFKGRFTLSRDNSKNTAYLQMNSLRAEDTAVYYCARGDYRYNGDWFFDVWGQGTLVTVSS
VL: DIQMTQSPSSLSASVGDRVTITCRSSQSLVHGIGNTALHWYQQKPGKAPKLLIYKVSNRFSGVPSRFSGSGSGTDFTLTISSLQPEDFATYYCSQSTHVPLTFGQGTKVEIKR
B8: no binding [6].

B9: humanized 6G425 F(ab)-8 (Fab, V domains shown)
VH: EVQLVESGGGLVQPGGSLRLSCAASGYSFSSHYMHWVKQAPGKGLEWVGYIDPSNGETTYNQKFKGRFTLSRDNSKNTAYLQMNSLRAEDTAVYYCARGDYRYNGDWFFDVWGQGTLVTVSS
VL: DIQMTQSPSSLSASVGDRVTITCRSSQSLVHGIGNTYLHWYQQKPGKAPKLLIYKVSNRFSGVPSRFSGSGSGTDFTLTISSLQPEDFATYYCSQSTHVPLTFGQGTKVEIKR
B9 was tested, and the “IC50, IL-8 mediated neutrophil chemotaxis” value (rhesus IL-8) was 10 nM.

B10: 5.12.14 Fab: recombinant human-murine chimeric Fab of 5.12.14 (protein)
light: DIVMTQSQKFMSTSVGDRVSVTCKASQNVGTNVAWYQQKPGQSPKALIYSSSYRYSGVPDRFTGSGSGTDFTLTISHVQSEDLADYFCQQYNIYPLTFGPGTKLELRRAVAAPSVFIFPPSDEQLKSGTASVVCLLNNFYPREAKVQWKVDNALQSGNSQESVTEQDSKDSTYSLSSTLTLSKADYEKHKVYACEVTHQGLSSPVTKSFNRGEC
heavy: EVQLVESGGGLVPPGGSLKLSCAASGFIFSSYGMSWVRQTPGKSLELVATINNNGDSTYYPDSVKGRFTISRDNAKNTLYLQMSSLKSEDTAMFYCARALISSATWFGYWGQGTLVTVSAASTKGPSVFPLAPSSKSTSGGTAALGCLVKDYFPEPVTVSWNSGALTSGVHTFPAVLQSSGLYSLSSVVTVPSSSLGTQTYICNVNHKPSNTKVDKKVEPKSCDKTHT
For B10, the “inhibition of human IL-8 mediated neutrophil chemotaxis / migration” value (IL-8) was “demonstrates the inhibition of human IL-8 mediated neutrophil chemotaxis”.

B11: F(ab)-8: humanized variant, F(ab)-6 with ArgH38Lys (protein)
light: DIQMTQSPSSLSASVGDRVTITCRSSQSLVHGIGNTYLHWYQQKPGKAPKLLIYKVSNRFSGVPSRFSGSGSGTDFTLTISSLQPEDFATYYCSQSTHVPLTFGQGTKVEIKRTVAAPSVFIFPPSDEQLKSGTASVVCLLNNFYPREAKVQWKVDNALQSGNSQESVTEQDSKDSTYSLSSTLTLSKADYEKHKVYACEVTHQGLSSPVTKSFNRGEC
heavy: EVQLVESGGGLVQPGGSLRLSCAASGYSFSSHYMHWVKQAPGKGLEWVGYIDPSNGETTYNQKFKGRFTLSRDNSKNTAYLQMNSLRAEDTAVYYCARGDYRYNGDWFFDVWGQGTLVTVSSASTKGPSVFPLAPSSKSTSGGTAALGCLVKDYFPEPVTVSWNSGALTSGVHTFPAVLQSSGLYSLSSVVTVPSSSLGTQTYICNVNHKPSNTKVDKKVEPKSCDKTHT
For B11, the IC50 (IL-8; read-out: IC50, human wild type IL-8 mediated neutrophil chemotaxis) was 12 nM.

B12: 6G4V11N35E Fab: affinity matured variant of humanized 6G4V11 Fab with Glu at position 35 of CDR-L1 (protein)
light: DIQMTQSPSSLSASVGDRVTITCRSSQSLVHGIGETYLHWYQQKPGKAPKLLIYKVSNRFSGVPSRFSGSGSGTDFTLTISSLQPEDFATYYCSQSTHVPLTFGQGTKVEIKRTVAAPSVFIFPPSDEQLKSGTASVVCLLNNFYPREAKVQWKVDNALQSGNSQESVTEQDSKDSTYSLSSTLTLSKADYEKHKVYACEVTHQGLSSPVTKSFNRGEC
heavy: EVQLVQSGGGLVQPGGSLRLSCAASGYSFSSHYMHWVRQAPGKGLEWVGYIDPSNGETTYNQKFKGRFTLSRDNSKNTAYLQMNSLRAEDTAVYYCARGDYRYNGDWFFDVWGQGTLVTVSSASTKGPSVFPLAPSSKSTSGGTAALGCLVKDYFPEPVTVSWNSGALTSGVHTFPAVLQSSGLYSLSSVVTVPSSSLGTQTYICNVNHKPSNTKVDKKVEPKSCDKTHT
For B12, the IC50 (IL-8; 2 nM IL-8, disposable chemotaxis chambers, read-out: IC50, human IL-8 mediated neutrophil chemotaxis) was ~1.2 nM and the “inhibition of chemotaxis at 3.7 nM-33 nM” value (IL-8; 2 nM stimulus of rabbit or human IL-8, compared with buffer control) was “could completely inhibit this response”.
